In test [1] the target is T1, human CD24 (human, UniProt P25063 27-59, heavily glycosylated, GPI-anchored (as described in the background)).
T1 construct: whole, on cells; Target of all cell-based FACS assays; also called hCD24; Cluster of differentiation 24
T1 chain (looked up): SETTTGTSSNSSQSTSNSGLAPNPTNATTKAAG
The test is described as follows: FACS, 5637 cells. The protocol: (§1) Screening & Expansion: The subcloning plates were screened by Acumen assay and the subclones with good binding ability were expanded to 24-wells for confirmation tests. The specificity and cross-reactivity of these subclones were confirmed with FACs analysis. […] Fluorescent dye-conjugated secondary antibody was used to detect the binding of the primary antibody with the cells. Median fluorescence intensity (MFI) was measured by FACs analysis.

Test [2] addresses T1, human CD24. The test is described as follows: FACS, MCF7 cells. How it is done: as §1
Test [3] deals with T1, human CD24. Nature of the test: FACS, 5637 cells. The protocol: (§2) Sequences of some of antibodies from Table 1 were selected to generate and produce human IgG4 chimeric antibodies. […] The protocol for FACs analysis is described as follows: [0536] a. Digested cells using TrypLE™ Express Enzyme (IX); Centrifuged the harvested cells at 400 g for 5 min and discarding the supernatant. [0537] b. Washed the cells 2 times with cold FACS buffer by centrifuging at 400 g for 5 min and discarding the supernatant. [0538] c. […] Incubate at […] for 1 h. [0539] d. Washed the cells twice by using the condition in step b. Resuspended the cells with 100 μl/well diluted 2nd antibody, incubated at 4 degree for 1 h in the dark. [0540] e. Washed the cells twice by using the condition in step b. Resuspended the cells with 100 μl/well cold FACS buffer. Kept the cells in dark for FACS analysis.

Test [4] has as its target T1, human CD24. The test is described as follows: FACS, MCF7 cells. The protocol:
as §2

Test [5] deals with T1, human CD24. Nature of the test: FACS, A549 cells. The protocol:
as §2

Test [6] deals with T1, human CD24. The test is described as follows: FACS, Nalm1 cells. The protocol: as §1
Test [7] addresses T1, human CD24. The test is described as follows: FACS, H1975 cells. How it is done:
as §1

The target of test [8] is T1, human CD24. The test is described as follows: FACS, Nalm1 cells. The protocol: as §2
For test [9], the target named is T1, human CD24. Nature of the test: FACS, H1975 cells. The protocol:
as §2

The target in test [10] is T1, human CD24. The test is described as follows: FACS, HT-29 cells. How it is done: as §2
The target in test [11] is T1, human CD24. The test is described as follows: FACS, 293F-hCD24 cells. The protocol:
as §1

For test [12], the target named is T1, human CD24. The test is described as follows: FACS, 293F-hCD24 cells. How it is done:
as §2

For test [13], the target named is T1, human CD24. Nature of the test: FACS, MDA-MB-468 cells. How it is done:
as §2

The target of test [14] is T1, human CD24. The test is described as follows: FACS, CHOK1-hCD24 cells. The protocol:
as §2

Test [15] addresses T1, human CD24. Nature of the test: cell-based or functional assay.

B1: 100F2E3 (antibody, V domains shown)
VH: QVQLQQPGAELVRPGSSVKLSCKTSDYTFTSYWMDWVKQRPGQGLEWIGNIYPSDSKTHSNQKFRDKATLTVDKSSSTAYMQLNSLTSEDSAVYYCARRGGYYGYAMDYWGQGTSVTVSS
VL: DIVMTQSPSSLSVSAGEKVTMSCKSSQSLLNSGNQDNYLAWYQQKPGQPPKLLIYGASIRESGVPDRFTGSGSGTDFTLTISSVQAEDLAVYYCQNDHSYPYTFGGGTKLEIK
notes: mouse monoclonal antibody
As for B1, the “FACS MFI” value stood at 22100 with human CD24 [1]; 7160 in the test with human CD24 [2]; 58800 with human CD24 [6]; 6900 in the test with human CD24 [7]; 44100 in the test with human CD24 [11]; 44000 with human CD24 [13]. The EC50 came out at 9.47 nM with human CD24 [3]; 8.08 nM with human CD24 [4]; 6.58 nM with human CD24 [5]; 8.88 nM in the test with human CD24 [8]; 10 nM with human CD24 [9]; 9.55 nM with human CD24 [10]. The EC50 with human CD24 [12] is 11.4 nM; with human CD24 [13], 19.6 nM; in the test with human CD24 [14], 1.71 nM. Further, the “Max MFI” value stood at 8670 with human CD24 [5]; 58800 with human CD24 [8]; 2420 with human CD24 [10]; 44100 with human CD24 [12]; 22300 with human CD24 [14].

B2: ch33E7E12-hIgG1 (antibody, V domains shown)
VH: EVKLEESGGGLVQPGGSMKLSCFVSGFTFSNSWMNWVRQSPEKGLEWVAQIQLKSDNYATRYVESVRGRFIISRDDSKSSVSLQMNNLRTEDTGIYYCSSGTDYWGQGTTLTVSS
VL: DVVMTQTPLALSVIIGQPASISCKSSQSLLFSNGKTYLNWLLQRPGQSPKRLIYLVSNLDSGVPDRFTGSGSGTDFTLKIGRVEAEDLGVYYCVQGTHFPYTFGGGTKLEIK
notes: chimeric
Take B2: the EC50 with human CD24 [3] came to 6.44 nM; in the test with human CD24 [4] it was 4.35 nM; in the test with human CD24 [8], 5.8 nM; with human CD24 [12], 3.55 nM; with human CD24 [13] it was 9.07 nM; in the test with human CD24 [14], 2.27 nM. Also, the “Max MFI” value in the test with human CD24 [3] is 42900; with human CD24 [4], 20600; with human CD24 [8] it was 109000; with human CD24 [12], 80900; with human CD24 [13], 56700; with human CD24 [14], 62100. In the test with human CD24 [15], the “EC50 (nM), phagocytosis against HT-29 cells” value (from here on “EC50 (nM), phagocytosis”) was 0.042 nM. Moreover, the “Max phagocytosis Index (%), phagocytosis against HT-29 cells” value (“Max phagocytosis Index (%), phagocytosis” below) with human CD24 [15] was 80.4%.

B3: ch33E7E12-hIgG4 (antibody, V domains shown)
VH: EVKLEESGGGLVQPGGSMKLSCFVSGFTFSNSWMNWVRQSPEKGLEWVAQIQLKSDNYATRYVESVRGRFIISRDDSKSSVSLQMNNLRTEDTGIYYCSSGTDYWGQGTTLTVSS
VL: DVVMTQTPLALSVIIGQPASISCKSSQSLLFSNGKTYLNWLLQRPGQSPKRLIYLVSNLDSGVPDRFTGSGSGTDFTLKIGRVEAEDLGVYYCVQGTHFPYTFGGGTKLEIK
notes: chimeric
For B3, the EC50 in the test with human CD24 [3] was found to be 7.27 nM; with human CD24 [4], 4.75 nM; with human CD24 [8], 11.8 nM; with human CD24 [12], 4.56 nM; in the test with human CD24 [13], 6.8 nM; in the test with human CD24 [14], 2.66 nM. Besides, the “Max MFI” value in the test with human CD24 [3] is 25600; with human CD24 [4] it was 16100; with human CD24 [8] it was 34400; in the test with human CD24 [12] it was 55200; with human CD24 [13], 20100; with human CD24 [14], 56600. Further, the “EC50 (nM), phagocytosis” value with human CD24 [15] came out at 3.25 nM. For the same molecule, the “Max phagocytosis Index (%), phagocytosis” value with human CD24 [15] came out at 33.3%.

B4: 33E7E12 (antibody, V domains shown)
VH: EVKLEESGGGLVQPGGSMKLSCFVSGFTFSNSWMNWVRQSPEKGLEWVAQIQLKSDNYATRYVESVRGRFIISRDDSKSSVSLQMNNLRTEDTGIYYCSSGTDYWGQGTTLTVSS
VL: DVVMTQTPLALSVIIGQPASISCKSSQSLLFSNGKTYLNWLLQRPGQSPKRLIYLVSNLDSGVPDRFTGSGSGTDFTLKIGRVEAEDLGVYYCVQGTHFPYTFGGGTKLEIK
notes: mouse monoclonal antibody
As to B4, the “FACS MFI” value with human CD24 [1] stood at 14100; in the test with human CD24 [2], 5410; with human CD24 [6] it was 45500; with human CD24 [7], 6110; with human CD24 [11] it was 24200; with human CD24 [13], 10900. For the same molecule, the EC50 with human CD24 [3] is 4.37 nM; in the test with human CD24 [4] it was 2.38 nM; in the test with human CD24 [8] it was 6.2 nM; with human CD24 [9] it was 8.15 nM; with human CD24 [10], 3.4 nM; with human CD24 [12] it was 2.4 nM. The EC50 with human CD24 [13] came to 3.45 nM; with human CD24 [14] it was 1.86 nM. Further, the “Max MFI” value turned out to be 45500 in the test with human CD24 [8], 2450 with human CD24 [10], 24200 with human CD24 [12] and 24100 in the test with human CD24 [14].

B5: ch56A7E3-hIgG4 (antibody, V domains shown)
VH: EVQLQQSGPELVKPGASVKIPCKASGYTFTAYNMDWVKQSHGMSLEWIGDINPINGGTIYNQNFEGKATLTVDKSSSTAYLELRSLTSEDTAVYYCARRGSYYYGSSHYALDFWGQGTSVSVSS
VL: DIQMTQITSSLSASLGDRVTITCRASQDISNYLNWYQQKPDGTVKLLIYYTSRLLSGVPSRFSGSGSGTDYSLTISNLEQEDIATYFCQQDHTLPRTFGGGTKLEIR
notes: chimeric
As for B5, the EC50 with human CD24 [3] amounted to 139 nM; in the test with human CD24 [4], 83.7 nM; in the test with human CD24 [8], 66.4 nM; with human CD24 [12] it was 3.7 nM; with human CD24 [13], 18.7 nM; in the test with human CD24 [14], 3.04 nM. The “Max MFI” value is 61100 with human CD24 [3]; 22800 with human CD24 [4]; 80300 in the test with human CD24 [8]; 57100 with human CD24 [12]; 54200 in the test with human CD24 [13]; 54100 with human CD24 [14]. In addition, in the test with human CD24 [15], the “EC50 (nM), phagocytosis” value worked out at 4.74 nM. For the same molecule, in the test with human CD24 [15], the “Max phagocytosis Index (%), phagocytosis” value stood at 55.2%.

B6: 56A7E3 (antibody, V domains shown)
VH: EVQLQQSGPELVKPGASVKIPCKASGYTFTAYNMDWVKQSHGMSLEWIGDINPINGGTIYNQNFEGKATLTVDKSSSTAYLELRSLTSEDTAVYYCARRGSYYYGSSHYALDFWGQGTSVSVSS
VL: DIQMTQITSSLSASLGDRVTITCRASQDISNYLNWYQQKPDGTVKLLIYYTSRLLSGVPSRFSGSGSGTDYSLTISNLEQEDIATYFCQQDHTLPRTFGGGTKLEIR
notes: mouse monoclonal antibody
Turning to B6, the “FACS MFI” value was determined as 18500 with human CD24 [1]; 9190 with human CD24 [2]; 74600 with human CD24 [6]; 2190 with human CD24 [7]; 26400 with human CD24 [11]; 15300 with human CD24 [13]. Moreover, the concentration giving a half-maximal response (EC50) with human CD24 [3] turned out to be 31.6 nM; with human CD24 [4], 81.7 nM; in the test with human CD24 [5], 92.4 nM; with human CD24 [8], 20.9 nM; with human CD24 [9], 93.1 nM; with human CD24 [10], 18.1 nM. Also, the EC50 stood at 7.52 nM with human CD24 [12], 16.7 nM in the test with human CD24 [13] and 4.85 nM with human CD24 [14]. The “Max MFI” value turned out to be 3320 with human CD24 [5]; 74600 with human CD24 [8]; 1460 with human CD24 [10]; 26400 with human CD24 [12]; 36700 with human CD24 [14].

B7: 81A1F8 (antibody, V domains shown)
VH: EVQLQQSGPELVKPGASVKISCKATGYLFTGYYMNWVKQSPEKSLEWIGEINPNTGDTNNNQKFKAKATMTVDRSSSTAYMQLKRLTSEDSAVYYCVRRDYGTSLDYWGQGTTLTVSS
VL: DVQITQSPSYLAASPGETITINCRASKSINKYLAWYQEKPGKTNKLLIHSGSTLQSGIPSRFSGSRSGTDFTLTISNLEPEDFAMYYCQQHNEYPITFGAGTKLELK
notes: mouse monoclonal antibody
B7: the “FACS MFI” value in the test with human CD24 [1] turned out to be 22200; with human CD24 [2] it was 11500; in the test with human CD24 [6], 24800; in the test with human CD24 [7] it was 10600; in the test with human CD24 [11] it was 10300; with human CD24 [13], 24900. For the same molecule, the EC50 with human CD24 [3] was 3.31 nM; with human CD24 [4], 3 nM; with human CD24 [5] it was 2.37 nM; in the test with human CD24 [8] it was 1.9 nM; with human CD24 [9], 2.03 nM; with human CD24 [10], 2.93 nM. Besides, the EC50 with human CD24 [12] is 1.7 nM; with human CD24 [13], 5.23 nM; with human CD24 [14], 1.52 nM. Moreover, the “Max MFI” value amounted to 8660 with human CD24 [5]; 24800 in the test with human CD24 [8]; 3050 with human CD24 [10]; 10300 with human CD24 [12]; 45900 in the test with human CD24 [14].

The values above are taken from patent US20240052052A1 (ANTENGENE BIOLOGICS, published 2024).
